experiment: soluble on expression in E. coli; label from the status in PepcDB or PDB records

| Sequence | soluble on expression in E. coli |
| --- | --- |
| MIFFSVALTTLLVGLSNGCFCPPVISPSCGCGGGGYSSYSGGGYGGGYGGGAINGYATFYRDLTPFRQPYYQTASYPQYQQGPAQSLQQMYQLPNPRYIQPQAPRPQYISRPAPRPAPAPYQPPRVQERPYVQPAAPVAELAETRKNTLHDNGYGEEIERTTYTPVVTAAPVYETDAPTIVTQAPAVEEVPDFDETPVKKGEKDEFYYAYYDDKGNKVGDSRSGTTFAPENVIVEEEATVAPAPASIHMDVTTERVEVANENYDDVVEETQVPVRTSLSPSYTPEVVTSSTVLFMEPRVEAKTVAPAAHENTEVVYEDETVEYEDDGHSETSELPSTKKPQSAEFKRTVQDNQILVDAAENTGEGYRRRNAVNGVRIVKRFRHDERKIHSN | not soluble |
| MIFGRSQRGKPPVEPVTLKILVAGGFGVGKTTLVGAVSEIRPLRTEELLTEAGRPVDDVSGVEGKHTTTVAMDFGRITLREDLVLYLFGTPGQERFWFMWDELSEGALGAVVLADTRRLEDCFAAIDYFERRSIPFVVGVNCFEGSARYPGETVRQALDLDEDVPLVMCDARDRESVKEVLIGVVQHAMTQAADRRRAVPTLEHHHHHH | not soluble |
| MIFSVDKVRADFPVLSREVNGLPLAYLDSAASAQKPSQVIDAEAEFYRHGYAAVHRGIHTLSAQATEKMENVRKRASLFINARSAEELVFVRGTTEGINLVANSWGNSNVRAGDNIIISQMEHHANIVPWQMLCARVGAELRVIPLNPDGTLQLETLPTLFDEKTRLLAITHVSNVLGTENPLAEMITLAHQHGAKVLVDGAQAVMHHPVDVQALDCDFYVFSGHKLYGPTGIGILYVKEALLQEMPPWEGGGSMIATVSLSEGTTWTKAPWRFEAGTPNTGGIIGLGAALEYVSALGLNNIAEYEQNLMHYALSQLESVPDLTLYGPQNRLGVIAFNLGKHHAYDVGSFLDNYGIAVRTGHHCAMPLMAYYNVPAMCRASLAMYNTHEEVDRLVTGLQRIHRLLG | soluble |
| MIGVGKMKQYSNVLDKPLSKGKQEVSLTAFAFLFSELVQYNQTQVDNIAELERRLEDAGYAVGSRVLELLCNREKGNRRETRLLGILSFVHSTVWKVLFGKVADSLEKGTEHEDEYMISEKELLVNRFISIPKDMGTFNCGAFVAGIVKGVLDNAGFPAVVTAHFVPIEGQQRPRTTILIKFADEVLKREARLSQ | soluble |
| MIGYVLNGEHEEIPYGELMALLEIFNYNGSVERLKRYVITEDSPAKDIVKRSGYIDEGHRIIFRYNLEEKSVDLVDKIVNDFINSFKDFVANIDYPDIDESKSYAVRVLKLHKDEFTKSIDSLRIEKEIGGIIKLKTNAKVNLTKPDILVRVVILENTFFISNVLEMRDREYFQKNRPHLRKYFHPGCMLPKLARAMVNLARVKEGDIVLDPFCGTGGFLIEAGLIGAKLIGCDIDWRMASGTLINLEEYNLLDKVIKVKRLDAKYVKEFLNELNIEKVDAIVTDPPYGISTAKKGEIEKILETLPEVIKDNGYFVFAYPKKIELDMELEGLYKVYIHKGLIRHIHVYKKI | soluble |
| MIHEVAGDGTKRSFHEKKKMDESYQRNGRTNLEHVPRLKLGKLFIFISASTNKTCLQIDNEITNN | not soluble |
| MIIDQQLVCYKRLPNWTATTLPEMVTQKHNTKVGTWAKLTILSGTLHFYELDEQGEITAEHLFTPETEIPFVEPQSWHRIAAASDNLECYLSFYCKPEDYMAKKYDTKAHSEVLEAVQSGHIKPGRTLDLGCGHGRNALYLASLGHEVTAVDINNEATQRIQMIADEESYNVRAGYYDINVSALPESETFDFILSTVVFMFLDPNQIPAIIQNMQERTSIGGYNLIVCAMDTEEHPCTMPFPFTFEEGELKNYYSDWELIKYNENLGHLHRLDEHGNPIALQFATMLAKKVTLEHHHHHH | soluble |
| MIINIRKFREHDLKRVMEIEKESFDKNYPEFLMMHIYTSFPDGFLVAETEDGKIVGYIIALMEWGNGHVVSIAVDSAYQNYGIGNALLSATENFLFNECHAKHCVLEVRFDNKKAREFYYKRNYVDRKVLYNYYDDGADAILMIKRRFDLSGNYPIFVNMW | not soluble |

From the DeepSol protein solubility set
